Laboratory results taken from PMC12342132, “Mechanistic insights into the GEF activity of the human MON1A/CCZ1/C18orf8 complex” (Protein & Cell, 2025).

B1: MON1A (235–652) (domain or fragment, human, UniProt Q86VX9 235-652, looked up)
chain: GTTEGDEEDATEAWRLHQKHVFVLSEAGKPVYSRYGSEEALSSTMGVMVALVSFLEADKNAIRSIHADGYKVVFVRRSPLVLVAVARTRQSAQELAQELLYIYYQILSLLTGAQLSHIFQQKQNYDLRRLLSGSERITDNLLQLMARDPSFLMGAARCLPLAAAVRDTVSASLQQARARSLVFSILLARNQLVALVRRKDQFLHPIDLHLLFNLISSSSSFREGEAWTPVCLPKFNAAGFFHAHISYLEPDTDLCLLLVSTDREDFFAVSDCRRRFQERLRKRGAHLALREALRTPYYSVAQVGIPDLRHFLYKSKSSGLFTSPEIEAPYTSEEEQERLLGLYQYLHSRAHNASRPLKTIYYTGPNENLLAWVTGAFELYMCYSPLGTKASAVSAIHKLMRWIRKEEDRLFILTPLTY
notes: Subunit of m3, written alone for the pairwise contacts in the structure
B2: CCZ1 (1–482) (natural protein, human, UniProt P86791 1-482, looked up)
chain: MAAAAAGAGSGPWAAQEKQFPPALLSFFIYNPRFGPREGQEENKILFYHPNEVEKNEKIRNVGLCEAIVQFTRTFSPSKPAKSLHTQKNRQFFNEPEENFWMVMVVRNPIIEKQSKDGKPVIEYQEEELLDKVYSSVLRQCYSMYKLFNGTFLKAMEDGGVKLLKERLEKFFHRYLQTLHLQSCDLLDIFGGISFFPLDKMTYLKIQSFINRMEESLNIVKYTAFLYNDQLIWSGLEQDDMRILYKYLTTSLFPRHIEPELAGRDSPIRAEMPGNLQHYGRFLTGPLNLNDPDAKCRFPKIFVNTDDTYEELHLIVYKAMSAAVCFMIDASVHPTLDFCRRLDSIVGPQLTVLASDICEQFNINKRMSGSEKEPQFKFIYFNHMNLAEKSTVHMRKTPSVSLTSVHPDLMKILGDINSDFTRVDEDEEIIVKAMSDYWVVGKKSDRRELYVILNQKNANLIEVNEEVKKLCATQFNNIFFLD
notes: human CCZ1, residues 1-482; Subunit of m3, written alone for the pairwise contacts in the structure

How the values were obtained:
C18orf8 (1–657) = target: T1, C18orf8 (1–657) (human, UniProt Q96DM3 1-657); experiment: cryo-EM structure; MON1A (235–652)/CCZ1 (1–482)/C18orf8 (1–657)/Rab7A (1–181) T22N complex, 3.41 Å; conditions: both partners purified
T1 construct: Subunit of m3, written alone for the pairwise contacts in the structure
T1 sequence (looked up): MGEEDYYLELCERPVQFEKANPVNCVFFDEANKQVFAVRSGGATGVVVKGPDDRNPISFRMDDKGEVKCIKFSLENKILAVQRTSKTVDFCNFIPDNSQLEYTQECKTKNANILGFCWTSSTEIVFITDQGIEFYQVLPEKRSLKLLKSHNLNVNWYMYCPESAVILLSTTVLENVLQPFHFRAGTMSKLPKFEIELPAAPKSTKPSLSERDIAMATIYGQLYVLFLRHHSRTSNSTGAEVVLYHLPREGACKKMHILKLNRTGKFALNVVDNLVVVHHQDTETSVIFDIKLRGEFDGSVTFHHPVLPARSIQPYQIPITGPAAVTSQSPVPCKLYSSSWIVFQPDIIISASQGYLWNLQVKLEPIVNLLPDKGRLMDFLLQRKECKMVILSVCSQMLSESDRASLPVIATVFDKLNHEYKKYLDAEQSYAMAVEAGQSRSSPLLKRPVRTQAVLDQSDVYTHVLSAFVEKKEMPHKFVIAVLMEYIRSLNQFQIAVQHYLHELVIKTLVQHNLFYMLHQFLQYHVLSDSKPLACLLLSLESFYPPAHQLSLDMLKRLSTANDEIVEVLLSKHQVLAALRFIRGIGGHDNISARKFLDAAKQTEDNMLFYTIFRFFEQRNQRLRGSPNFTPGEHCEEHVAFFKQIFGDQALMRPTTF

CCZ1 (1–482) = target: B2; experiment: as above; conditions: both partners purified

Binder | binding result (C18orf8 (1–657)) | binding result (CCZ1 (1–482))
B1 | binds | binds
B2 | binds | –
